Laboratory results published in PMC10308901, “In vitro and ex vivo proteomics of Mycobacterium marinum biofilms and the development of biofilm-binding synthetic nanobodies” (mSystems, 2023).

Target: T1, Mycobacterium marinum GroEL2, recombinant, biotinylated AVI-tagged form (Mycobacterium marinum, UniProt B2HQP9 1-541)
T1 construct: also called Mmr GroEL2; biotinylated GroEL protein
Assay: BLI
Conditions: both partners purified

| Binder | Kd |
| --- | --- |
| GroEL2 sybody number 32 (VHH, not shown: Myc, C-terminal, kept; His6, C-terminal, kept) VHH: QVQLVESGGGLVQAGGSLRLSCAASGFPVVSQFMEWHRQAPGKEREWVAAIDSTGYSTFYADSVKGRFTISRDNAKNTVYLQMNSLKPEDTAVYYCNVKDAGEGQEQYDYWGQGTQVTVSA | ~153 nM |
| GroEL2 sybody number 19 (VHH, not shown: Myc, C-terminal, kept; His6, C-terminal, kept) VHH: QVQLVESGGGLVQAGGSLRLSCAASGFPVEWLEMAWYRQAPGKEREWVAAIYSYGMETEYADSVKGRFTISRDNAKNTVYLQMNSLKPEDTAVYYCNVKDGGHAAWWYDYWGQGTQVTVSA | ~366 nM |
| GroEL2 sybody number 2 (VHH, not shown: Myc, C-terminal, kept; His6, C-terminal, kept) VHH: QVQLVESGGGLVQAGGSLRLSCAASGFPVSSSTMTWYRQAPGKEREWVAAIDSVGNETYYADSVKGRFTISRDNAKNTVYLQMNSLKPEDTAVYYCAVFVGSYYGQGTQVTVSA | ~157 nM |
| GroEL2 sybody number 10 (VHH, not shown: Myc, C-terminal, kept; His6, C-terminal, kept) VHH: QVQLVESGGGLVQAGGSLRLSCAASGFPVKHWYMHWYRQAPGKEREWVAAIQSTGSYTAYADSVKGRFTISRDNAKNTVYLQMNSLKPEDTAVYYCNVKEYGFYHASYDYWGQGTQVTVSA | ~193 nM |
| GroEL2 sybody number 3 (VHH, also called GroEL2_SB3; not shown: Myc, C-terminal, kept; His6, C-terminal, kept) VHH: QVQLVESGGGLVQAGGSLRLSCAASGFPVAYWEMVWYRQAPGKEREWVAAIRSTGWKTVYADSVKGRFTISRDNAKNTVYLQMNSLKPEDTAVYYCTAVYVGVHYKGQGTQVTVSA | ~18 nM |
| GroEL2 sybody number 11 (VHH, not shown: Myc, C-terminal, kept; His6, C-terminal, kept) VHH: QVQLVESGGGLVQAGGSLRLSCAASGFPVDSAYMWWYRQAPGKEREWVAAIESNGEYTFYADSVKGRFTISRDNAKNTVYLQMNSLKPEDTAVYYCNVKDTGAHHSYYDYWGQGTQVTVSA | ~271 nM |
| GroEL2 sybody number 27 (VHH, not shown: Myc, C-terminal, kept; His6, C-terminal, kept) VHH: QVQLVESGGGLVQAGGSLRLSCAASGFPVWKAYMWWYRQAPGKEREWVAAIESNGAYTFYADSVKGRFTISRDNAKNTVYLQMNSLKPEDTAVYYCNVKDTGSDSENYDYWGQGTQVTVSA | ~101 nM |
| GroEL2 sybody number 1 (VHH, not shown: Myc, C-terminal, kept; His6, C-terminal, kept) VHH: QVQLVESGGGLVQAGGSLRLSCAASGFPVAITYMHWYRQAPGKEREWVAAISSTGKTTWYADSVKGRFTISRDNAKNTVYLQMNSLKPEDTAVYYCLVEVGHYYKGQGTQVTVSA | ~591 nM |
| GroEL2 sybody number 8 (VHH, not shown: Myc, C-terminal, kept; His6, C-terminal, kept) VHH: QVQLVESGGGLVQAGGSLRLSCAASGFPVYMSWMYWYRQAPGKEREWVAAIMSEGAGTWYADSVKGRFTISRDNAKNTVYLQMNSLKPEDTAVYYCNVKDTGSFHAQYDYWGQGTQVTVSA | ~13 nM |
| GroEL2 sybody number 31 (VHH, not shown: Myc, C-terminal, kept; His6, C-terminal, kept) VHH: QVQLVESGGGLVQAGGSLRLSCAASGFPVWMEWMYWYRQAPGKEREWVAAIMSEGDGTWYADSVKGRFTISRDNAKNTVYLQMNSLKPEDTAVYYCNVKDFGYNNNYYDYWGQGTQVTVSA | ~66 nM |
| GroEL2 sybody number 22 (VHH, not shown: Myc, C-terminal, kept; His6, C-terminal, kept) VHH: QVQLVESGGGLVQAGGSLRLSCAASGFPVYHSWMYWYRQAPGKEREWVAAIMSDGHGTWYADSVKGRFTISRDNAKNTVYLQMNSLKPEDTAVYYCNVKDTGSSTTIYDYWGQGTQVTVSA | ~507 nM |
| GroEL2 sybody number 33 (VHH, not shown: Myc, C-terminal, kept; His6, C-terminal, kept) VHH: QVQLVESGGGLVQAGGSLRLSCAASGFPVYQHWMYWYRQAPGKEREWVAAIMSQGAGTWYADSVRGRFTISRDNAKNTVYLQMNSLKPEDTAVYYCNVKDLGKAEYNYDYWGQGTQVTVSA | ~244 nM |
| GroEL2 sybody number 28 (VHH, not shown: Myc, C-terminal, kept; His6, C-terminal, kept) VHH: QVQLVESGGGLVQAGGSLRLSCAASGFPVDAYWMYWYRQAPGKEREWVAAIMSSGHGTWYADSVKGRFTISRDNAKNTVYLQMNSLKPEDTAVYSCNVKDKGAQAAWYDYWGQGTQVTVSA | ~35 nM |
| GroEL2 sybody number 7 (VHH, not shown: Myc, C-terminal, kept; His6, C-terminal, kept) VHH: QVQLVESGGGLVQAGGSLRLSCAASGFPVNDAWMYWYRQAPGKEREWVAAIMSMGFGTWYADSVKGRFTISRDNAKNTVYLQMNSLKPEDTAVYYCNVKDRGKEHFSYDYWGQGTQVTVSA | ~100 nM |
| GroEL2 sybody number 9 (VHH, also called GroEL2_SB9; not shown: Myc, C-terminal, kept; His6, C-terminal, kept) VHH: QVQLVESGGGLVQAGGSLRLSCAASGFPVYQSWMYWYRQAPGKEREWVAAIMSDGSGTWYADSVKGRFTISRDNAKNTVYLQMNSLKPEDTAVYYCNVKDFGHSRSRYDYWGQGTQVTVSA | ~277 nM |
| GroEL2 sybody number 16 (VHH, not shown: Myc, C-terminal, kept; His6, C-terminal, kept) VHH: QVQLVESGGGLVQAGGSLRLSCAASGFPVSSSTMTWYRQAPGKEREWVAAIESWGAYTWYADSVKGRFTISRDNAKNTVYLQMNSLKPEDTAVYYCNVKDYDGVADVIYDYWGQGTQVTVSA | ~15 nM |

Target: T2, Mycobacterium marinum GroEL1, recombinant (Mycobacterium marinum, UniProt B2HD10 1-539)
T2 construct: also called Mmr GroEL1
Assay: BLI
Conditions: both partners purified

| Binder | Kd |
| --- | --- |
| GroEL1 sybody number 18 (VHH, not shown: Myc, C-terminal, kept; His6, C-terminal, kept) VHH: QVQLVESGGGLVQAGGSLRLSCAASGFPVKTKHMYWYRQAPGKEREWVAAITSIGMITAYADSVKGRFTISRDNAKNTVYLQMNSLKPEDTAVYYCNVKDWGTNRQAYDYWGQGTQVTVSA | ~22 nM |
| GroEL1 sybody number 12 (VHH, not shown: Myc, C-terminal, kept; His6, C-terminal, kept) VHH: QVQLVESGGGLVQAGGSLRLSCAASGFPVTQAWMEWYRQAPGKEREWVAAIFSHGGGTFYADSVKGRFTISRDNAKNTVYLQMNSLKPEDTAVYYCNVKDTGERDNWYDYWGQGTQVTVSA | ~14 nM |
| GroEL1 sybody number 31 (VHH, also called GroEL1_SB31; not shown: Myc, C-terminal, kept; His6, C-terminal, kept) VHH: QVQLVESGGGSVQAGGSLRLSCAASGTIYKIYYLGWFRQAPGKEREGVAALNTFSGGTYYADSVKGRFTVSLDNAKNTVYLQMNSLKPEDTALYYCAAAYDMEGYAWPLYWWHYEYWGQGTQVTVSA | ~92 nM |
| GroEL1 sybody number 1 (VHH, not shown: Myc, C-terminal, kept; His6, C-terminal, kept) VHH: QVQLVESGGGLVQAGGSLRLSCAASGFPVEQRQMYWYRQAPGKEREWVAAIQSYGKRTKYADSVKGRFTISRDNAKNTVYLQMNSLKPEDTAVYYCVVYVGGGYKGQGTQVTVSA | ~130 nM |
| GroEL1 sybody number 5 (VHH, not shown: Myc, C-terminal, kept; His6, C-terminal, kept) VHH: QVQLVESGGGLVQAGGSLRLSCAASGFPVEHKQMRWYRQAPGKEREWVAAIESSGQYTIYADSVKGRFTISRDNAKNTVYLQMNSLKPEDTAVYYCFVGVGAGYYGQGTQVTVSA | ~127 nM |
| GroEL1 sybody number 9 (VHH, not shown: Myc, C-terminal, kept; His6, C-terminal, kept) VHH: QVQLVESGGGLVQAGGSLRLSCAASGLPVWQQGMTWYRQAPGKEREWVAAIDSVGAQTYYADSVKGRFTISRDNAKNTVYLQMNSLKPEDTAVYYCAVNVGARYIGQGTQVTVSA | ~64 nM |
